Measurements: patent publication US20230322957A1 (ENGMAB SARL, published 2023)

T1: human BCMA on the cell surface (human, UniProt Q02223 1-184)
T1 sequence (looked up): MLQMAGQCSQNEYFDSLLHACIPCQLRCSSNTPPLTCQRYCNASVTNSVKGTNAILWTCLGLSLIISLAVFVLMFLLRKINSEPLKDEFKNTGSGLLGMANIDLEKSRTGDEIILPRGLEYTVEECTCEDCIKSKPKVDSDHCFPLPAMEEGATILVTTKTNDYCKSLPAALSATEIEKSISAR

B1: 21-TCBcv (bispecific antibody, human IgG1, kappa, L234A L235A)
heavy 1: not shown
heavy 2: EVQLLESGGGLVQPGGSLRLSCAASGFTFSDNAMGWVRQAPGKGLEWVSAISGPGSSTYYADSVKGRFTISRDNSKNTLYLQMNSLRAEDTAVYYCAKVLGWFDYWGQGTLVTVSSASTKGPSVFPLAPSSKSTSGGTAALGCLVEDYFPEPVTVSWNSGALTSGVHTFPAVLQSSGLYSLSSVVTVPSSSLGTQTYICNVNHKPSNTKVDEKVEPKSCDKTHTCPPCPAPEAAGGPSVFLFPPKPKDTLMISRTPEVTCVVVDVSHEDPEVKFNWYVDGVEVHNAKTKPREEQYNSTYRVVSVLTVLHQDWLNGKEYKCKVSNKALGAPIEKTISKAKGQPREPQVCTLPPSRDELTKNQVSLSCAVKGFYPSDIAVEWESNGQPENNYKTTPPVLDSDGSFFLVSKLTVDKSRWQQGNVFSCSVMHEALHNHYTQKSLSLSPGK
light 1: EIVLTQSPGTLSLSPGERATLSCRASQSVSEYYLAWYQQKPGQAPRLLIEHASTRATGIPDRFSGSGSGTDFTLTISRLEPEDFAVYYCQQYGYPPDFTFGQGTKVEIKRTVAAPSVFIFPPSDRKLKSGTASVVCLLNNFYPREAKVQWKVDNALQSGNSQESVTEQDSKDSTYSLSSTLTLSKADYEKHKVYACEVTHQGLSSPVTKSFNRGEC
light 2: EVQLLESGGGLVQPGGSLRLSCAASGFTFSTYAMNWVRQAPGKGLEWVSRIRSKYNNYATYYADSVKGRFTISRDDSKNTLYLQMNSLRAEDTAVYYCVRHGNFGNSYVSWFAYWGQGTLVTVSSASVAAPSVFIFPPSDEQLKSGTASVVCLLNNFYPREAKVQWKVDNALQSGNSQESVTEQDSKDSTYSLSSTLTLSKADYEKHKVYACEVTHQGLSSPVTKSFNRGEC
B2: 22-TCBcv (bispecific antibody, human IgG1, kappa, L234A L235A)
heavy 1: not shown
heavy 2: EVQLLESGGGLVQPGGSLRLSCAASGFTFSDNAMGWVRQAPGKGLEWVSAISGPGSSTYYADSVKGRFTISRDNSKNTLYLQMNSLRAEDTAVYYCAKVLGWFDYWGQGTLVTVSSASTKGPSVFPLAPSSKSTSGGTAALGCLVEDYFPEPVTVSWNSGALTSGVHTFPAVLQSSGLYSLSSVVTVPSSSLGTQTYICNVNHKPSNTKVDEKVEPKSCDKTHTCPPCPAPEAAGGPSVFLFPPKPKDTLMISRTPEVTCVVVDVSHEDPEVKFNWYVDGVEVHNAKTKPREEQYNSTYRVVSVLTVLHQDWLNGKEYKCKVSNKALGAPIEKTISKAKGQPREPQVCTLPPSRDELTKNQVSLSCAVKGFYPSDIAVEWESNGQPENNYKTTPPVLDSDGSFFLVSKLTVDKSRWQQGNVFSCSVMHEALHNHYTQKSLSLSPGK
light 1: EIVLTQSPGTLSLSPGERATLSCRASQSVSSYYLAWYQQKPGQAPRLLISGAGSRATGIPDRFSGSGSGTDFTLTISRLEPEDFAVYYCQQYGYPPDFTFGQGTKVEIKRTVAAPSVFIFPPSDRKLKSGTASVVCLLNNFYPREAKVQWKVDNALQSGNSQESVTEQDSKDSTYSLSSTLTLSKADYEKHKVYACEVTHQGLSSPVTKSFNRGEC
light 2: EVQLLESGGGLVQPGGSLRLSCAASGFTFSTYAMNWVRQAPGKGLEWVSRIRSKYNNYATYYADSVKGRFTISRDDSKNTLYLQMNSLRAEDTAVYYCVRHGNFGNSYVSWFAYWGQGTLVTVSSASVAAPSVFIFPPSDEQLKSGTASVVCLLNNFYPREAKVQWKVDNALQSGNSQESVTEQDSKDSTYSLSSTLTLSKADYEKHKVYACEVTHQGLSSPVTKSFNRGEC
B3: 42-TCBcv (bispecific antibody, human IgG1, kappa, L234A L235A)
heavy 1: not shown
heavy 2: EVQLLESGGGLVQPGGSLRLSCAASGFTFSDNAMGWVRQAPGKGLEWVSAISGPGSSTYYADSVKGRFTISRDNSKNTLYLQMNSLRAEDTAVYYCAKVLGWFDYWGQGTLVTVSSASTKGPSVFPLAPSSKSTSGGTAALGCLVEDYFPEPVTVSWNSGALTSGVHTFPAVLQSSGLYSLSSVVTVPSSSLGTQTYICNVNHKPSNTKVDEKVEPKSCDKTHTCPPCPAPEAAGGPSVFLFPPKPKDTLMISRTPEVTCVVVDVSHEDPEVKFNWYVDGVEVHNAKTKPREEQYNSTYRVVSVLTVLHQDWLNGKEYKCKVSNKALGAPIEKTISKAKGQPREPQVCTLPPSRDELTKNQVSLSCAVKGFYPSDIAVEWESNGQPENNYKTTPPVLDSDGSFFLVSKLTVDKSRWQQGNVFSCSVMHEALHNHYTQKSLSLSPGK
light 1: EIVLTQSPGTLSLSPGERATLSCRASQSVSDEYLSWYQQKPGQAPRLLIHSASTRATGIPDRFSGSGSGTDFTLAISRLEPEDFAVYYCQQYGYPPDFTFGQGTKVEIKRTVAAPSVFIFPPSDRKLKSGTASVVCLLNNFYPREAKVQWKVDNALQSGNSQESVTEQDSKDSTYSLSSTLTLSKADYEKHKVYACEVTHQGLSSPVTKSFNRGEC
light 2: EVQLLESGGGLVQPGGSLRLSCAASGFTFSTYAMNWVRQAPGKGLEWVSRIRSKYNNYATYYADSVKGRFTISRDDSKNTLYLQMNSLRAEDTAVYYCVRHGNFGNSYVSWFAYWGQGTLVTVSSASVAAPSVFIFPPSDEQLKSGTASVVCLLNNFYPREAKVQWKVDNALQSGNSQESVTEQDSKDSTYSLSSTLTLSKADYEKHKVYACEVTHQGLSSPVTKSFNRGEC

Key:
Assay in all cases: cell-based or functional assay
[1] = target: T1, human BCMA on the cell surface
[2] = target: T1, human BCMA on the cell surface; remark: listed apart in the source
[3] = target: T1, human BCMA on the cell surface; remark: listed apart in the source
[4] = target: T1, human BCMA on the cell surface; remark: listed apart in the source
[5] = target: T1, human BCMA on the cell surface; remark: listed apart in the source
[6] = target: T1, human BCMA on the cell surface; remark: listed apart in the source

Row | Binder | EC50 redirected T-cell killing of H929 cells (LDH release), Donor 1 [1] | EC50 redirected T-cell killing of H929 cells (LDH release), Donor 3 [1] | EC50 redirected T-cell killing of H929 cells (LDH release), Donor 4 [1] | EC50 redirected T-cell killing of H929 cells (LDH release), Donor 5 [1] | EC50 redirected T-cell killing of RPMI-8226 cells (LDH release), Donor 2 [2] | EC50 redirected T-cell killing of RPMI-8226 cells (LDH release), Donor 3 [2] | EC50 redirected T-cell killing of RPMI-8226 cells (LDH release), Donor 4 [2] | EC50 redirected T-cell killing of RPMI-8226 cells (LDH release), Donor 5 [2] | EC50 redirected T-cell killing of L363 cells (LDH release), Donor 1 [3] | EC50 redirected T-cell killing of L363 cells (LDH release), Donor 2 [3] | EC50 redirected T-cell killing of L363 cells (LDH release), Donor 3 [3] | EC50 redirected T-cell killing of L363 cells (LDH release), Donor 4 [3] | EC50 redirected T-cell killing of L363 cells (LDH release), Donor 5 [3] | Annexin-V positive JJN-3 cells (%) at 0.1 pM, Experiment 2 [4] | Annexin-V positive JJN-3 cells (%) at 1 pM, Experiment 1 [4] | Annexin-V positive JJN-3 cells (%) at 1 pM, Experiment 2 [4] | Annexin-V positive JJN-3 cells (%) at 10 pM, Experiment 1 [4] | Annexin-V positive JJN-3 cells (%) at 10 pM, Experiment 2 [4] | Annexin-V positive JJN-3 cells (%) at 100 pM, Experiment 1 [4] | Annexin-V positive JJN-3 cells (%) at 100 pM, Experiment 2 [4] | also measured
1 | B1 | 0.0971 nM | 0.0421 nM | 0.0539 nM | 0.0387 nM | 0.0413 nM | 0.0088 nM | 0.004 nM | 0.0084 nM | 0.0836 nM | 0.0384 nM | 0.0189 nM | 0.0191 nM | 0.0464 nM | – | – | – | – | – | – | – | –
2 | B2 | 0.0532 nM | 0.0422 nM | 0.0232 nM | 0.0289 nM | 0.0476 nM | 0.0076 nM | 0.0032 nM | 0.0055 nM | 0.0975 nM | 0.0277 nM | 0.0165 nM | 0.0146 nM | 0.056 nM | 14.8% | 9.3% | 15% | 13.3% | 15.9% | 12.5% | 18.4% | Annexin-V positive JJN-3 cells (%) at 1000 pM, Experiment 1 [4]: 26.1%; Annexin-V positive JJN-3 cells (%) at 1000 pM, Experiment 2 [4]: 27%; Annexin-V positive JJN-3 cells (%) at 10000 pM, Experiment 1 [4]: 22.9%; Annexin-V positive JJN-3 cells (%) at 10000 pM, Experiment 2 [4]: 29.7%; Lysis of JJN-3 cells (%) at 0.1 pM, Experiment 2 [5]: 36.5%; Lysis of JJN-3 cells (%) at 1 pM, Experiment 1 [5]: 4.29%; Lysis of JJN-3 cells (%) at 1 pM, Experiment 2 [5]: 24.4%; Lysis of JJN-3 cells (%) at 10 pM, Experiment 1 [5]: 73.6%; Lysis of JJN-3 cells (%) at 10 pM, Experiment 2 [5]: 41.7%; Lysis of JJN-3 cells (%) at 100 pM, Experiment 1 [5]: 56.3%; Lysis of JJN-3 cells (%) at 100 pM, Experiment 2 [5]: 53%; Lysis of JJN-3 cells (%) at 1000 pM, Experiment 1 [5]: 90.5%; Lysis of JJN-3 cells (%) at 1000 pM, Experiment 2 [5]: 94.1%; Lysis of JJN-3 cells (%) at 10000 pM, Experiment 1 [5]: 88%; Lysis of JJN-3 cells (%) at 10000 pM, Experiment 2 [5]: 91.2%; Annexin-V positive patient bone marrow myeloma plasma cells (%) at 10 pM [6]: 14.2%; Annexin-V positive patient bone marrow myeloma plasma cells (%) at 100 pM [6]: 14.8%; Annexin-V positive patient bone marrow myeloma plasma cells (%) at 1000 pM [6]: 31%; Annexin-V positive patient bone marrow myeloma plasma cells (%) at 10000 pM [6]: 51.7%; Annexin-V positive patient bone marrow myeloma plasma cells (%) at 30000 pM [6]: 55.7%
3 | B3 | 0.0097 nM | 0.0117 nM | 0.0072 nM | 0.0068 nM | 0.383 nM | 0.0187 nM | 0.0035 nM | 0.0015 nM | 0.0155 nM | 0.0167 nM | 0.0052 nM | 0.0022 nM | 0.0106 nM | 12.8% | 11.9% | 13.5% | 12.3% | 13.6% | 8.62% | 14.4% | Annexin-V positive JJN-3 cells (%) at 1000 pM, Experiment 1 [4]: 16.8%; Annexin-V positive JJN-3 cells (%) at 1000 pM, Experiment 2 [4]: 21.7%; Annexin-V positive JJN-3 cells (%) at 10000 pM, Experiment 1 [4]: 24.8%; Annexin-V positive JJN-3 cells (%) at 10000 pM, Experiment 2 [4]: 26.9%; Lysis of JJN-3 cells (%) at 0.1 pM, Experiment 2 [5]: 17.6%; Lysis of JJN-3 cells (%) at 1 pM, Experiment 1 [5]: 40.3%; Lysis of JJN-3 cells (%) at 1 pM, Experiment 2 [5]: 34.9%; Lysis of JJN-3 cells (%) at 10 pM, Experiment 1 [5]: 39%; Lysis of JJN-3 cells (%) at 10 pM, Experiment 2 [5]: 39.4%; Lysis of JJN-3 cells (%) at 100 pM, Experiment 1 [5]: 41.9%; Lysis of JJN-3 cells (%) at 100 pM, Experiment 2 [5]: 55.3%; Lysis of JJN-3 cells (%) at 1000 pM, Experiment 1 [5]: 84%; Lysis of JJN-3 cells (%) at 1000 pM, Experiment 2 [5]: 81.1%; Lysis of JJN-3 cells (%) at 10000 pM, Experiment 1 [5]: 92.9%; Lysis of JJN-3 cells (%) at 10000 pM, Experiment 2 [5]: 90.4%; Annexin-V positive patient bone marrow myeloma plasma cells (%) at 10 pM [6]: 19.6%; Annexin-V positive patient bone marrow myeloma plasma cells (%) at 100 pM [6]: 10.5%; Annexin-V positive patient bone marrow myeloma plasma cells (%) at 1000 pM [6]: 30%; Annexin-V positive patient bone marrow myeloma plasma cells (%) at 10000 pM [6]: 39.9%; Annexin-V positive patient bone marrow myeloma plasma cells (%) at 30000 pM [6]: 52.5%
